Data as given in article PMC2191386 (The Journal of Experimental Medicine, 1994).

Molecular target: T1, LFA-3, purified (human (endogenous in JY), UniProt P19256 29-250)
T1 sequence (looked up): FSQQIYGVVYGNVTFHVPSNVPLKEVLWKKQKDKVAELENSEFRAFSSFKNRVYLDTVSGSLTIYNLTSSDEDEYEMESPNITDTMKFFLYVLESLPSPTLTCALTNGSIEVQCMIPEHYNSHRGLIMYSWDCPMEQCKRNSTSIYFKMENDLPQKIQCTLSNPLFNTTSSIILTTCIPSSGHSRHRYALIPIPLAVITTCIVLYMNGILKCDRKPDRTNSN
Assay: cell adhesion to purified protein

fold increase of cell binding on PMA stimulation: 3 fold
B1: CD2 on SKW3 cells (receptor, human (endogenous in SKW3), UniProt P06729 25-351, looked up)
chain: KEITNALETWGALGQDINLDIPSFQMSDDIDDIKWEKTSDKKKIAQFRKEKETFKEKDTYKLFKNGTLKIKHLKTDDQDIYKVSIYDTKGKNVLEKIFDLKIQERVSKPKISWTCINTTLTCEVMNGTDPELNLYQDGKHLKLSQRVITHKWTTSLSAKFKCTAGNKVSKESSVEPVSCPEKGLDIYLIIGICGGGSLLMVFVALLVFYITKRKKQRSRRNDEELETRAHRVATEERGRKPHQIPASTPQNPATSQHPPPPPGHRSQAPSHRPPPPGHRVQHQPQKRPPAPSGTQVHQQKGPPLPRPRVQPKPPHGAAENSLSPSSN
